Test results taken from US20150299296A1 (Chugai, published 2015).
Residue numbers refer to the chain shown, from its start. Names may count otherwise.

T1: human FcγRIIb extracellular domain with C-terminal His tag (human, UniProt P31994 43-217)
T1 construct: extracellular domain; For crystals it was expressed with kifunensine and trimmed with Endo F1; also called FcgRIIb; FcγRIIb extracellular region
T1 sequence (looked up): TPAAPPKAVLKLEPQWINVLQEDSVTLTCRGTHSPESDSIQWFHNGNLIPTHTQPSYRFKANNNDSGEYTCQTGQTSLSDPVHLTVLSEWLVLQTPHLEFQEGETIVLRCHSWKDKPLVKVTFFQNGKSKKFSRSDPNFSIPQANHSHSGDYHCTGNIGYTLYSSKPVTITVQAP

T2: human FcγRIIa type H extracellular domain with C-terminal His tag (human, UniProt P12318 34-217)
T2 construct: extracellular domain; also called FcgRIIaH; FcγRIIa H
T2 sequence (looked up): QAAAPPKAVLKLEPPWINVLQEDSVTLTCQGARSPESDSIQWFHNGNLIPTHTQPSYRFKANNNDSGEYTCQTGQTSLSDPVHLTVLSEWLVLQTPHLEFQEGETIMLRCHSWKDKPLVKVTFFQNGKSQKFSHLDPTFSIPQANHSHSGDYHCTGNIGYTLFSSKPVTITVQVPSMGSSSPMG

B1: IL6R-BP423/IL6R-L (antibody, human IgG1, kappa)
heavy: QVQLQESGPGLVKPSETLSLTCAVSGHSISHDHAWSWVRQPPGEGLEWIGFISYSGITNYNPSLQGRVTISRDNSKNTLYLQMNSLRAEDTAVYYCARSLARTTAMDYWGEGTLVTVSSASTKGPSVFPLAPSSKSTSGGTAALGCLVKDYFPEPVTVSWNSGALTSGVHTFPAVLQSSGLYSLSSVVTVPSSSLGTQTYICNVNHKPSNTKVDKKVEPKSCDKTHTCPPCPAPDLLGDDSVFLFPPKPKDTLMISRTPEVTCVVVDVAEEDGEVKFNWYVDGVEVHNAKTKPREEQYNSTYRVVSVLTVLHQDWLNGKEYKCKVSNKALPRPIEKTISKAKGQPREPQVYTLPPSRDELTKNQVSLTCLVKGFYPSDIAVEWESNGQPENNYKTTPPVLDSDGSFFLYSKLTVDKSRWQQGNVFSCSVMHEALHNHYTQESLSLSP
light: not shown
B2: IL6R-BP494/IL6R-L (antibody, human IgG1, kappa)
heavy: B1 heavy with D235E, Y298D
light: not shown
B3: IL6R-BP511/IL6R-L (antibody, human IgG1, kappa)
heavy: B1 heavy with D235E, V266I, E274P, Y298D
light: not shown
B4: IL6R-BP510/IL6R-L (antibody, human IgG1, kappa)
heavy: B1 heavy with D235E, V266I, E274P
light: not shown
notes: also called IL6R-BP510/L6R-L
B5: IL6R-BP487/IL6R-L (antibody, human IgG1, kappa)
heavy: B1 heavy with V266I, P398M
light: not shown
B6: IL6R-BP498/IL6R-L (antibody, human IgG1, kappa)
heavy: B1 heavy with V266I, P398L
light: not shown
B7: IL6R-BP429/IL6R-L (antibody, human IgG1, kappa)
heavy: B1 heavy with V266I, A269G
light: not shown
B8: IL6R-BP503/IL6R-L (antibody, human IgG1, kappa)
heavy: B1 heavy with V266I, Y298D, A329G, P398M
light: not shown
B9: IL6R-BP499/IL6R-L (antibody, human IgG1, kappa)
heavy: B1 heavy with V266I, Y298D, P398L
light: not shown
B10: IL6R-BP437/IL6R-L (antibody, human IgG1, kappa)
heavy: B1 heavy with D235E, Y298D, I334T
light: not shown
B11: IL6R-BP445/IL6R-L (antibody, human IgG1, kappa)
heavy: B1 heavy with V266I
light: not shown
B12: IL6R-BP490/IL6R-L (antibody, human IgG1, kappa)
heavy: B1 heavy with D235E, V266I
light: not shown
B13: IL6R-BP488/IL6R-L (antibody, human IgG1, kappa)
heavy: B1 heavy with V266I, Y298D
light: not shown
B14: IL6R-BP491/IL6R-L (antibody, human IgG1, kappa)
heavy: B1 heavy with D235E, V266I, Y298D
light: not shown
B15: IL6R-BP183/IL6R-L (antibody, human IgG1, kappa, name in EU numbering)
heavy: B1 heavy with L236Y, D239G, A269S, E270H, K328A, R332K
light: not shown
B16: IL6R-BP199/IL6R-L (antibody, human IgG1, kappa, name in EU numbering)
heavy: B1 heavy with D239G, A269S, E270H, G273P, K328A
light: not shown
B17: IL6R-BP207/IL6R-L (antibody, human IgG1, kappa, name in EU numbering)
heavy: B1 heavy with D239G, A269S, E270H, G273P
light: not shown
B18: IL6R-BP198/IL6R-L (antibody, human IgG1, kappa, name in EU numbering)
heavy: B1 heavy with L236Y, D239G, A269S, E270D, K328A, R332K
light: not shown
B19: IL6R-BP189/IL6R-L (antibody, human IgG1, kappa, name in EU numbering)
heavy: B1 heavy with D235E, A269S, E270D, K328A, R332K
light: not shown
B20: IL6R-BP196/IL6R-L (antibody, human IgG1, kappa, name in EU numbering)
heavy: B1 heavy with D235E, L236Y, D239G, A269S, E270D, K328A, R332K
light: not shown
B21: IL6R-BP192/IL6R-L (antibody, human IgG1, kappa, name in EU numbering)
heavy: B1 heavy with D239G, A269S, E270D, Y298D, R332K
light: not shown
B22: IL6R-BP184/IL6R-L (antibody, human IgG1, kappa, name in EU numbering)
heavy: B1 heavy with D239G, A269S, E270H, R332K
light: not shown
B23: IL6R-BP180/IL6R-L (antibody, human IgG1, kappa, name in EU numbering)
heavy: B1 heavy with D235E, A269S, E270H, R332K
light: not shown
B24: IL6R-BP194/IL6R-L (antibody, human IgG1, kappa, name in EU numbering)
heavy: B1 heavy with L236Y, A269S, E270D, K328A, R332K
light: not shown
B25: IL6R-BP185/IL6R-L (antibody, human IgG1, kappa, name in EU numbering)
heavy: B1 heavy with L236Y, A269S, E270H, K328A, R332K
light: not shown
B26: IL6R-BP186/IL6R-L (antibody, human IgG1, kappa, name in EU numbering)
heavy: B1 heavy with L236Y, A269S, E270H, Y298D, K328A, R332K
light: not shown
B27: IL6R-BP206/IL6R-L (antibody, human IgG1, kappa, name in EU numbering)
heavy: B1 heavy with D239G, A269S, E270H
light: not shown
B28: IL6R-BP203/IL6R-L (antibody, human IgG1, kappa, name in EU numbering)
heavy: B1 heavy with D235E, A269S, E270H
light: not shown
B29: IL6R-BP213/IL6R-L (antibody, human IgG1, kappa, name in EU numbering)
heavy: B1 heavy with D239G, A269S, E270D
light: not shown
B30: IL6R-BP209/IL6R-L (antibody, human IgG1, kappa, name in EU numbering)
heavy: B1 heavy with D235E, A269S, E270D, K328A
light: not shown
B31: IL6R-BP187/IL6R-L (antibody, human IgG1, kappa, name in EU numbering)
heavy: B1 heavy with D235E, L236Y, D239G, A269S, E270H, K328A, R332K
light: not shown
B32: G237W (antibody, human IgG1, kappa)
heavy chain: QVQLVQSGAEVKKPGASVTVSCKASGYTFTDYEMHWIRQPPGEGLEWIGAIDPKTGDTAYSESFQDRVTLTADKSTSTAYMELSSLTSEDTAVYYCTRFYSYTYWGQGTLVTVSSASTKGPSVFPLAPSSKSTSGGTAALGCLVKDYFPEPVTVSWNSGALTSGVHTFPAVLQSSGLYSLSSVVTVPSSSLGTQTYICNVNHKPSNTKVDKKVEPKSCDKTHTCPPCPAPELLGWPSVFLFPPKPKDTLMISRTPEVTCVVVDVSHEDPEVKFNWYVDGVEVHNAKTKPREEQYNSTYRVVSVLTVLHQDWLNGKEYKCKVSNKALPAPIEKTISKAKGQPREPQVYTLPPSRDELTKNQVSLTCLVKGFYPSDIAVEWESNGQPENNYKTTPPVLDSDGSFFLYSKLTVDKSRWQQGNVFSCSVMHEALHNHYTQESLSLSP
light chain: DIVMTQSPLSLPVTPGEPASISCQASESLVHSNRNTYLHWYLQKPGQSPQLLIYKVSNRFSGVPDRFSGSGSGTDFTLKISRVEAEDVGVYYCSQNTHVPPTFGQGTKVEIERTVAAPSVFIFPPSDEQLKSGTASVVCLLNNFYPREAKVQWKVDNALQSGNSQESVTEQDSKDSTYSLSSTLTLSKADYEKHKVYACEVTHQGLSSPVTKSFNRGEC
notes: also called GpH7-B3 with G237W / GpL16-k0 (no P238D)
B33: G237D (antibody, human IgG1, kappa)
heavy chain: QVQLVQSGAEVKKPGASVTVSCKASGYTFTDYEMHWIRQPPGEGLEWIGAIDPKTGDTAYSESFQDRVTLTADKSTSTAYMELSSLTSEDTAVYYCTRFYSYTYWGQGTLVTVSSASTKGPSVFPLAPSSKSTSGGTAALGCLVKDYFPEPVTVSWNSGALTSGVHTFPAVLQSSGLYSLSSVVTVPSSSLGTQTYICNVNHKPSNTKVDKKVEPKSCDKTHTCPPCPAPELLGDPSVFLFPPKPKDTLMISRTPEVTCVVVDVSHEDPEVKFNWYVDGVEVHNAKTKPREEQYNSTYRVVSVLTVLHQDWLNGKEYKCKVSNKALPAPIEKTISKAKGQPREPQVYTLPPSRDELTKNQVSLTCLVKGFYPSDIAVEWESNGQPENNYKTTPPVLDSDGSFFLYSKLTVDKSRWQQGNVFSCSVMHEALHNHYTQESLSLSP
light chain: B32 light chain
notes: also called GpH7-B3 with G237D / GpL16-k0 (no P238D)
B34: G237A (antibody, human IgG1, kappa)
heavy chain: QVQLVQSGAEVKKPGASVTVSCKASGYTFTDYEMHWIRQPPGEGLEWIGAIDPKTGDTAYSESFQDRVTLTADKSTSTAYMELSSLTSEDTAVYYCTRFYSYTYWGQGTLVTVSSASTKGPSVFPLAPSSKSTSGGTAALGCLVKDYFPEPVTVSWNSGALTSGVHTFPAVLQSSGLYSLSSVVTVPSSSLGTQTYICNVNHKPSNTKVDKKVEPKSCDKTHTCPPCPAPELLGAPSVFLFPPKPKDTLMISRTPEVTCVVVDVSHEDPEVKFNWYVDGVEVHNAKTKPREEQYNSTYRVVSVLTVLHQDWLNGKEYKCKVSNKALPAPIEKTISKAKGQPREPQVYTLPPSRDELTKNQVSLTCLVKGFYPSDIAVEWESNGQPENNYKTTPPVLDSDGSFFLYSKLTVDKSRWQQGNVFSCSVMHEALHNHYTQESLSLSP
light chain: B32 light chain
notes: also called GpH7-B3 with G237A / GpL16-k0 (no P238D)

molecular target: T1, human FcγRIIb extracellular domain with …; assay: SPR

Row | binding result | Binder
1 | binds | B1
2 | binds | B2
3 | binds | B3
4 | binds | B4
5 | binds | B5
6 | binds | B6
7 | binds | B7
8 | binds | B8
9 | binds | B9
10 | binds | B10
11 | binds | B11
12 | binds | B12
13 | binds | B13
14 | binds | B14

molecular target: T3, human FcγRIa extracellular domain with C-terminal His tag (human, UniProt P12314 16-292); assay: SPR; IL6R-BF648/IL6R-L=100
T3 construct: Whole entry named; also called FcgRIa; FcgIa
Protocol: (§1) IL6R-L was utilized as the common antibody L chain for all of the antibodies, the antibodies were expressed and purified according to the method of Reference Example 1, and binding to each of the FcγRs (FcγRIa, FcγRIIa type H, FcγRIIa type R, FcγRIIb, and FcγRIIIa type V) was comprehensively evaluated by the method of Reference Example 2.
(§2) Relative binding activities were calculated for the results of analyzing interactions with the respective FcγRs according to the following method.

T3 sequence (P12314 16-292): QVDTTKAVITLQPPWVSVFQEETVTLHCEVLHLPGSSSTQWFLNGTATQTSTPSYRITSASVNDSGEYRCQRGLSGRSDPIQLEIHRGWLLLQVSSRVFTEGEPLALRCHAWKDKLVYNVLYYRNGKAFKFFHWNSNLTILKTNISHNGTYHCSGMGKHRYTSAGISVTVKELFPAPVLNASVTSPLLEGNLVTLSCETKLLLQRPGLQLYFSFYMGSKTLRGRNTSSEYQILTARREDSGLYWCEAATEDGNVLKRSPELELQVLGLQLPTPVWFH

Row | relative binding activity | Binder
15 | 83 | B15
16 | 112 | B16
17 | 74 | B17
18 | 104 | B18
19 | 56 | B19
20 | 89 | B20
21 | 109 | B21
22 | 96 | B22
23 | 29 | B23
24 | 69 | B24
25 | 47 | B25
26 | 43 | B26
27 | 101 | B27
28 | 35 | B28
29 | 118 | B29
30 | 68 | B30
31 | 68 | B31

molecular target: T1, human FcγRIIb extracellular domain with …; assay: SPR; IL6R-BF648/IL6R-L=100
Protocol: as §1, §2

Row | relative binding activity | Binder
32 | 164 | B15
33 | 144 | B16
34 | 124 | B17
35 | 164 | B18
36 | 177 | B19
37 | 157 | B20
38 | 172 | B21
39 | 171 | B22
40 | 179 | B23
41 | 178 | B24
42 | 179 | B25
43 | 175 | B26
44 | 168 | B27
45 | 185 | B28
46 | 169 | B29
47 | 186 | B30
48 | 157 | B31

molecular target: T2, human FcγRIIa type H extracellular …; assay: SPR; IL6R-BF648/IL6R-L=100
Protocol: as §1, §2

Row | relative binding activity | Binder
49 | 191 | B15
50 | 116 | B16
51 | 103 | B17
52 | 188 | B18
53 | 183 | B19
54 | 195 | B20
55 | 122 | B21
56 | 131 | B22
57 | 203 | B23
58 | 395 | B24
59 | 446 | B25
60 | 368 | B26
61 | 123 | B27
62 | 255 | B28
63 | 123 | B29
64 | 267 | B30
65 | 205 | B31

molecular target: T4, human FcγRIIIa type V extracellular domain with C-terminal His tag (human, UniProt P08637 17-208); assay: SPR; IL6R-BF648/IL6R-L=100
T4 construct: extracellular domain; also called FcgRIIIaV; FcγRIIIaV
Protocol: as §1, §2

T4 sequence (P08637 17-208 F176V): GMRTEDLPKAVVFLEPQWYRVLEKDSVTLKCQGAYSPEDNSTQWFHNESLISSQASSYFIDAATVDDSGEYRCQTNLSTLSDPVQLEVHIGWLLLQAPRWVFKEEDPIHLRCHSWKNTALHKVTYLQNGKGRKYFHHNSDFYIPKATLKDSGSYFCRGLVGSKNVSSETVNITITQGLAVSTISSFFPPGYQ

Row | relative binding activity | Binder
66 | 113 | B15
67 | 103 | B16
68 | 97 | B17
69 | 157 | B18
70 | 141 | B19
71 | 137 | B20
72 | 118 | B21
73 | 106 | B22
74 | 100 | B23
75 | 249 | B24
76 | 191 | B25
77 | 143 | B26
78 | 92 | B27
79 | 88 | B28
80 | 100 | B29
81 | 153 | B30
82 | 124 | B31

molecular target: T1, human FcγRIIb extracellular domain with …; assay: SPR (Biacore): amount of FcγRIIb bound per captured antibody, relative to the pre-altered antibody GpH7-B3/GpL16-k0 = 100 (Reference Examples 2, 3 and 6)

Row | binding result | Binder
83 | binds | B32
84 | binds | B33
85 | binds | B34
